# Measured values: patent publication US20080020399A1
# How the values were obtained:
# [1] = tested on: biotinylated hIRS-1-p30 (domain D516-P777 of human IRS-1)
# [2] = target: rat liver insulin receptor purified by wheat germ lectin affinity chromatography (rat) (UniProt P15127); experiment: cell-based or functional assay
# Sequence of rat liver insulin receptor purified by wheat germ lectin affinity chromatography (rat) (P15127 27-1383 limits assumed, form in doubt): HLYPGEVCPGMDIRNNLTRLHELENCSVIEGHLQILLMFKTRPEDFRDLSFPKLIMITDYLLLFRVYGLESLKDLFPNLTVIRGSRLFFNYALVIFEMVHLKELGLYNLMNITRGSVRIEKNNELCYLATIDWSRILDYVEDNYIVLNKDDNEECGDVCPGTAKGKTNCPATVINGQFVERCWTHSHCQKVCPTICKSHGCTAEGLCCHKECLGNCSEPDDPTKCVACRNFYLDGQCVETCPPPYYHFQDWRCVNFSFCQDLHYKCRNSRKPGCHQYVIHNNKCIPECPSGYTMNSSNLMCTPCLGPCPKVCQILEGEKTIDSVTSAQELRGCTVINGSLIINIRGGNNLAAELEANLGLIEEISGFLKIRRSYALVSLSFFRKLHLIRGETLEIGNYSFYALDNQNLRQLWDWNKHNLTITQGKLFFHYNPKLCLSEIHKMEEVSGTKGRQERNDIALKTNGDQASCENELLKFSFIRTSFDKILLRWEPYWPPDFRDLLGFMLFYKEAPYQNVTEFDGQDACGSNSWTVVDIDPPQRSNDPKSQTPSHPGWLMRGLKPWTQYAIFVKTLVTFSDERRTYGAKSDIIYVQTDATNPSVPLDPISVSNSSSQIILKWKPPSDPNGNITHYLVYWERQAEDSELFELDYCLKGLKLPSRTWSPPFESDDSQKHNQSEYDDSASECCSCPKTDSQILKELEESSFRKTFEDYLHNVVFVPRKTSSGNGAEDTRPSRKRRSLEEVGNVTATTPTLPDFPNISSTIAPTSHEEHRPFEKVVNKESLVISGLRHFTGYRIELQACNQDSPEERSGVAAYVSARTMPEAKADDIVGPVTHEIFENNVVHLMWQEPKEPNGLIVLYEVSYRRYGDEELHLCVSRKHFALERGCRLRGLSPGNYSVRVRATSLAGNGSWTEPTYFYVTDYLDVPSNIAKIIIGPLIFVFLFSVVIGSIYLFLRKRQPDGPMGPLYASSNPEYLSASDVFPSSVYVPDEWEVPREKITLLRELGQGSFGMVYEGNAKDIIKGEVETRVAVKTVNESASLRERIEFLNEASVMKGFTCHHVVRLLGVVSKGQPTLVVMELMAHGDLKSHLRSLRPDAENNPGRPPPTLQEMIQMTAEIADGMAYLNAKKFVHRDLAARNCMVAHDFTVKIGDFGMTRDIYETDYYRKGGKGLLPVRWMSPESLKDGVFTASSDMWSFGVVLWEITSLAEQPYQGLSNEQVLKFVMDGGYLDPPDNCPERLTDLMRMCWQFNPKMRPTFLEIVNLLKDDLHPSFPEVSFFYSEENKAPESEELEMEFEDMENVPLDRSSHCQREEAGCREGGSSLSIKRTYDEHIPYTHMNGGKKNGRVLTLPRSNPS
# Sequence of biotinylated hIRS-1-p30 (domain D516-P777 of human IRS-1) (chain, as listed by the source): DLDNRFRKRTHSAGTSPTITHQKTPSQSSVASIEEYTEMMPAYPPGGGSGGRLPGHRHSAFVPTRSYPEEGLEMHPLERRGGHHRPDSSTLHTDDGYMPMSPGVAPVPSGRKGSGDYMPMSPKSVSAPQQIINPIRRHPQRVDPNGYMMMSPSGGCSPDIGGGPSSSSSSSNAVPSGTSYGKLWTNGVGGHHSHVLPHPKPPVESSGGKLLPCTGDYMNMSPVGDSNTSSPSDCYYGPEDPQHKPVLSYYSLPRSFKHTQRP
Substance,"phosphorylation of the biotinylated IRS-1 fragment (ALPHAScreen, p-Ser antibody) [1]",ALPHAScreen readout of tyrosine phosphorylation of 85 nM biotinylated IRS fragment by the insulin-stimulated receptor [2]
protein kinase C (serine kinase PKCδ),can be phosphorylated in the biotinylated state by the serine kinase PKCδ,–
human insulin (from UniProt P01308 25-54; P01308 90-110) (ligand),–,10 nM
